Test results as given in patent US20170190753A1 (LABORATOIRE FRANCAIS DU FRACTIONNEMENT ET DES …, published 2017).

B1: pCEP4-1NT8-16CT20 (other)
chain: EDCNELPPRRNTEILTGSWSDQTYPEGTQAIYKCRPGYRSLGNVIMVCRKGEWVALNPLRKCQKRPCGHPGDTPFGTFTLTGGNVFEYGVKAVYTCNEGYQLLGEINYRECDTDGWTNDIPICEVVKCLPVTAPENGKIVSSAMEPDREYHFGQAVRFVCNSGYKIEGDEEMHCSDDGFWSKEKPKCVEISCKSPDVINGSPISQKIIYKENERFQYKCNMGYEYSERGDAVCTESGWRPLPSCEEKSCDNPYIPNGDYSPLRIKHRTGDEITYQCRNGFYPATRGNTAKCTSTGWIPAPRCTLKPCDYPDIKHGGLYHENMRRPYFPVAVGKYYSYYCDEHFETPSGSYWDHIHCTQDGWSPAVPCLRKCYFPYLENGYNQNYGRKFVQGKSIDVACHPGYALPKAQTTVTCMENGWSPTPRCIRVKTCSKSSIDIENGFISESQYTYALKEKAKYQCKLGYVTADGETSGSITCGKDGWSAQPTCIKSGASGCKSPPEISHGVVAHMSDSYQYGEEVTYKCFEGFGIDGPAIAKCLGEKWSHPPSCIKTDCLSLPSFENAIPMGEKKDVYKAGEQVTYTCATYYKMDGASNVTCINSRWTGRPTCRDTSCVNPPTVQNAYIVSRQMSKYPSGERVRYQCRSPYEMFGDEEVMCLNGNWTEPPQCKDSTGKCGPPPPIDNGDITSFPLSVYAPASSVEYQCQNLYQLEGNKRITCRNGQWSEPPKCLHPCVISREIMENYNIALRWTAKQKLYSRTGESVEFVCKRGYRLSSRSHTLRTTCWDGKLEYPTCAKRGGSGHHHHHH
B2: pCEP4-1NT8-9CT20 (other)
chain: EDCNELPPRRNTEILTGSWSDQTYPEGTQAIYKCRPGYRSLGNVIMVCRKGEWVALNPLRKCQKRPCGHPGDTPFGTFTLTGGNVFEYGVKAVYTCNEGYQLLGEINYRECDTDGWTNDIPICEVVKCLPVTAPENGKIVSSAMEPDREYHFGQAVRFVCNSGYKIEGDEEMHCSDDGFWSKEKPKCVEISCKSPDVINGSPISQKIIYKENERFQYKCNMGYEYSERGDAVCTESGWRPLPSCEEKSCDNPYIPNGDYSPLRIKHRTGDEITYQCRNGFYPATRGNTAKCTSTGWIPAPRCTLKPCDYPDIKHGGLYHENMRRPYFPVAVGKYYSYYCDEHFETPSGSYWDHIHCTQDGWSPAVPCLRKCYFPYLENGYNQNYGRKFVQGKSIDVACHPGYALPKAQTTVTCMENGWSPTPRCIRVKTCSKSSIDIENGFISESQYTYALKEKAKYQCKLGYVTADGETSGSITCGKDGWSAQPTCIKSGASGCDIPVFMNARTKNDFTWFKLNDTLDYECHDGYESNTGSTTGSIVCGYNGWSDLPICYERECELPKIDVHLVPDRKKDQYKVGEVLKFSCKPGFTIVGPNSVQCYHFGLSPDLPICKEQVQSCGPPPELLNGNVKEKTKEEYGHSEVVEYYCNPRFLMKGPNKIQCVDGEWTTLPVCIVEESTCGDIPELEHGWAQLSSPPYYYGDSVEFNCSESFTMIGHRSITCIHGVWTQLPQCVAIDKLKKCKSSNLIILEEHLKNKKEFDHNSNIRYRCRGKEGWIHTVCINGRWDPEVNCSMAQIQLCPPPPQIPNSHNMTTTLNYRDGEKVSVLCQENYLIQEGEEITCKDGRWQSIPLCVEKIPCSQPPQIEHGTINSSRSSQESYAHGTKLSYTCEGGFRISEENETTCYMGKWSSPPQCEGLPCKSPPEISHGVVAHMSDSYQYGEEVTYKCFEGFGIDGPAIAKCLGEKWSHPPSCIKTDCLSLPSFENAIPMGEKKDVYKAGEQVTYTCATYYKMDGASNVTCINSRWTGRPTCRDTSCVNPPTVQNAYIVSRQMSKYPSGERVRYQCRSPYEMFGDEEVMCLNGNWTEPPQCKDSTGKCGPPPPIDNGDITSFPLSVYAPASSVEYQCQNLYQLEGNKRITCRNGQWSEPPKCLHPCVISREIMENYNIALRWTAKQKLYSRTGESVEFVCKRGYRLSSRSHTLRTTCWDGKLEYPTCAKRGGSGHHHHHH
B3: pCEP4-1NT9-16CT20 (other)
chain: EDCNELPPRRNTEILTGSWSDQTYPEGTQAIYKCRPGYRSLGNVIMVCRKGEWVALNPLRKCQKRPCGHPGDTPFGTFTLTGGNVFEYGVKAVYTCNEGYQLLGEINYRECDTDGWTNDIPICEVVKCLPVTAPENGKIVSSAMEPDREYHFGQAVRFVCNSGYKIEGDEEMHCSDDGFWSKEKPKCVEISCKSPDVINGSPISQKIIYKENERFQYKCNMGYEYSERGDAVCTESGWRPLPSCEEKSCDNPYIPNGDYSPLRIKHRTGDEITYQCRNGFYPATRGNTAKCTSTGWIPAPRCTLKPCDYPDIKHGGLYHENMRRPYFPVAVGKYYSYYCDEHFETPSGSYWDHIHCTQDGWSPAVPCLRKCYFPYLENGYNQNYGRKFVQGKSIDVACHPGYALPKAQTTVTCMENGWSPTPRCIRVKTCSKSSIDIENGFISESQYTYALKEKAKYQCKLGYVTADGETSGSITCGKDGWSAQPTCIKSCDIPVFMNARTKNDFTWFKLNDTLDYECHDGYESNTGSTTGSIVCGYNGWSDLPICYEREGASGCKSPPEISHGVVAHMSDSYQYGEEVTYKCFEGFGIDGPAIAKCLGEKWSHPPSCIKTDCLSLPSFENAIPMGEKKDVYKAGEQVTYTCATYYKMDGASNVTCINSRWTGRPTCRDTSCVNPPTVQNAYIVSRQMSKYPSGERVRYQCRSPYEMFGDEEVMCLNGNWTEPPQCKDSTGKCGPPPPIDNGDITSFPLSVYAPASSVEYQCQNLYQLEGNKRITCRNGQWSEPPKCLHPCVISREIMENYNIALRWTAKQKLYSRTGESVEFVCKRGYRLSSRSHTLRTTCWDGKLEYPTCAKRGGSGHHHHHH
B4: pCEP4-1NT7-11CT20 (other)
chain: EDCNELPPRRNTEILTGSWSDQTYPEGTQAIYKCRPGYRSLGNVIMVCRKGEWVALNPLRKCQKRPCGHPGDTPFGTFTLTGGNVFEYGVKAVYTCNEGYQLLGEINYRECDTDGWTNDIPICEVVKCLPVTAPENGKIVSSAMEPDREYHFGQAVRFVCNSGYKIEGDEEMHCSDDGFWSKEKPKCVEISCKSPDVINGSPISQKIIYKENERFQYKCNMGYEYSERGDAVCTESGWRPLPSCEEKSCDNPYIPNGDYSPLRIKHRTGDEITYQCRNGFYPATRGNTAKCTSTGWIPAPRCTLKPCDYPDIKHGGLYHENMRRPYFPVAVGKYYSYYCDEHFETPSGSYWDHIHCTQDGWSPAVPCLRKCYFPYLENGYNQNYGRKFVQGKSIDVACHPGYALPKAQTTVTCMENGWSPTPRCIRVKTGASGCGPPPELLNGNVKEKTKEEYGHSEVVEYYCNPRFLMKGPNKIQCVDGEWTTLPVCIVEESTCGDIPELEHGWAQLSSPPYYYGDSVEFNCSESFTMIGHRSITCIHGVWTQLPQCVAIDKLKKCKSSNLIILEEHLKNKKEFDHNSNIRYRCRGKEGWIHTVCINGRWDPEVNCSMAQIQLCPPPPQIPNSHNMTTTLNYRDGEKVSVLCQENYLIQEGEEITCKDGRWQSIPLCVEKIPCSQPPQIEHGTINSSRSSQESYAHGTKLSYTCEGGFRISEENETTCYMGKWSSPPQCEGLPCKSPPEISHGVVAHMSDSYQYGEEVTYKCFEGFGIDGPAIAKCLGEKWSHPPSCIKTDCLSLPSFENAIPMGEKKDVYKAGEQVTYTCATYYKMDGASNVTCINSRWTGRPTCRDTSCVNPPTVQNAYIVSRQMSKYPSGERVRYQCRSPYEMFGDEEVMCLNGNWTEPPQCKDSTGKCGPPPPIDNGDITSFPLSVYAPASSVEYQCQNLYQLEGNKRITCRNGQWSEPPKCLHPCVISREIMENYNIALRWTAKQKLYSRTGESVEFVCKRGYRLSSRSHTLRTTCWDGKLEYPTCAKRGGSGHHHHHH

What follows are binders tested against C3 convertase complex (UniProt P01024 23-1663; P00751 260-764) (assay: cell-based or functional assay).
Chain of C3 convertase complex (P01024 23-1663, chain 1 of 2): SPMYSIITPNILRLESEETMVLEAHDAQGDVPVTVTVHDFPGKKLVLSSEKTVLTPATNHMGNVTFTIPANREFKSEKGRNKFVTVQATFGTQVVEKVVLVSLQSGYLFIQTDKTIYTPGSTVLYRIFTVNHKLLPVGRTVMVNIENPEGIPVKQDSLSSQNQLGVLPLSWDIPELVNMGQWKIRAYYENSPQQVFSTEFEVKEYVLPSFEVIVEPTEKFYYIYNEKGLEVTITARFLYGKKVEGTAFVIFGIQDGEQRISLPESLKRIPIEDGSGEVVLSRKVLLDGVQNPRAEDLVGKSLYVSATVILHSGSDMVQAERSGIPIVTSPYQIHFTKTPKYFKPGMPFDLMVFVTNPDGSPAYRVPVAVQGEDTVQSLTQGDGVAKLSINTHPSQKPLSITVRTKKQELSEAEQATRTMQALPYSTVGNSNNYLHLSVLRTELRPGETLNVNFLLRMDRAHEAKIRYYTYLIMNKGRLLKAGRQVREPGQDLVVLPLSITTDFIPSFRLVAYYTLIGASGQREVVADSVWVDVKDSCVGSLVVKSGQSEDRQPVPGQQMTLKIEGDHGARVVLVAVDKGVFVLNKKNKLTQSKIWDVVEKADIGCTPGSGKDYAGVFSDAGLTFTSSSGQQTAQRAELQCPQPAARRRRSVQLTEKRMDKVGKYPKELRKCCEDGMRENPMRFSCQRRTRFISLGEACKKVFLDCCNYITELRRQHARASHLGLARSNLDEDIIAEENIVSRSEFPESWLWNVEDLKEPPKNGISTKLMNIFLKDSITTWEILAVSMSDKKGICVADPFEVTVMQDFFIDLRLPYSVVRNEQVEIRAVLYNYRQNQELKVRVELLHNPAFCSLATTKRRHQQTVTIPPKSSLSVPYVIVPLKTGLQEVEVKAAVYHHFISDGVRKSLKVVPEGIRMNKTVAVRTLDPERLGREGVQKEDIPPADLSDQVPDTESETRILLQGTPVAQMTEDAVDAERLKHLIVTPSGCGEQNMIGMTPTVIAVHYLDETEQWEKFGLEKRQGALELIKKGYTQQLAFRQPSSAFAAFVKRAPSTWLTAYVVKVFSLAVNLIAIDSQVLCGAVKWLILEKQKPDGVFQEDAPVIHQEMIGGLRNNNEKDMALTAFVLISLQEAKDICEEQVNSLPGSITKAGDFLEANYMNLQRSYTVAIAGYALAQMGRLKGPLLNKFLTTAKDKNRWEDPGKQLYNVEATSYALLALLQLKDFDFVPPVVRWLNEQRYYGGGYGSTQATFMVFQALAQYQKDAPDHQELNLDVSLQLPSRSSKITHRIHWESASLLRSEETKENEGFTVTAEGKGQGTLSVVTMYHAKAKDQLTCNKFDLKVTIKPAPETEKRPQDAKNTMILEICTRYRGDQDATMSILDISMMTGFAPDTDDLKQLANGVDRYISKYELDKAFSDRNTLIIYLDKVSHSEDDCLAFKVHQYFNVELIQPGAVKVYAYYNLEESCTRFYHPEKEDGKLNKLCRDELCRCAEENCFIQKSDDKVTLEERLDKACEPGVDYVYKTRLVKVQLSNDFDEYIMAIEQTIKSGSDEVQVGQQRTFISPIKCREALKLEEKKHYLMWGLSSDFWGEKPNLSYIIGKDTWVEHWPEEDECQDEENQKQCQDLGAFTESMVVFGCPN
Chain of C3 convertase complex (P00751 260-764, chain 2 of 2): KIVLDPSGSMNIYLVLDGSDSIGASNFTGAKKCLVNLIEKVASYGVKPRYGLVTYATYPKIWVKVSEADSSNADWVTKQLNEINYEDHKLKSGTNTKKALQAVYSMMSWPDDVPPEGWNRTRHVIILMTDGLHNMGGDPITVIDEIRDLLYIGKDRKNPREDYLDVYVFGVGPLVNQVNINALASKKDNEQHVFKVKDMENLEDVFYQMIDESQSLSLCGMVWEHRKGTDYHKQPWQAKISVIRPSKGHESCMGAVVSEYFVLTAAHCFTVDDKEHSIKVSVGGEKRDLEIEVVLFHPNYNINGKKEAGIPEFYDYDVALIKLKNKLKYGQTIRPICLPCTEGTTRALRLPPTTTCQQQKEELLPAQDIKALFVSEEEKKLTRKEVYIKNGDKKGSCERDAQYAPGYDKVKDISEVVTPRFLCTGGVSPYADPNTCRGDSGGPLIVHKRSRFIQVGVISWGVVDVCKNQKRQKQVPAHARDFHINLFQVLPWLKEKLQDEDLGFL
Throughout, for C3 convertase activity % of the control: test concentration or dose not given here.

First: B1
Second: B2
The “C3 convertase activity % of the control” value of the first is lower: 25 % of the control for the first, 27 % of the control for the second.

First: B3
Second: B4
The “C3 convertase activity % of the control” value of the first is lower: 25 % of the control for the first, 134 % of the control for the second.

B1 and B2 are within 1.5-fold of each other in “C3 convertase activity IC50” value: 0.426 µg/mL for the first, 0.489 µg/mL for the second.

First: B3
Second: B4
The “C3 convertase activity IC50” value of the first is 1.6-fold higher: 0.418 µg/mL for the first, 0.265 µg/mL for the second.
